According to article PMC12354883:

Biological target: 5c.c7 TCR on 5c.c7 αβ TCR-transgenic CD4+ T-cells (mouse)
Assay: flow cytometry on cells; time curve: T-cells labeled with AF555-H57-scFV (1800 ng per 1 Mio T-cells), washed, kept on ice, at room temperature or at 37 °C; samples taken after 0, 5, 10, 30, 60 and 120 min

Substance: fluorescently labeled H57 scFV (J1), TCR β-reactive H57 single-chain fragment
- time after which 50% of receptor:ligand bonds are still intact, room temperature: > 3 h
